Assay results reported in patent US20150259426A1 (Novartis, published 2015).

T1: hGITR (human, UniProt Q9Y5U5)
T1 construct: extracellular domain, E. coli lysate captured on a His capture plate; Target named only on the sheet; the construct is not described in the text
T1 sequence (extracellular domain, looked up): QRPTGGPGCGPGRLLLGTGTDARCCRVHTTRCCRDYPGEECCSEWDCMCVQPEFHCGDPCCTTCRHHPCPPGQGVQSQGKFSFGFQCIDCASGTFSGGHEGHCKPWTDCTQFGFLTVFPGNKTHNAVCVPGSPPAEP

T2: TNFR1 extracellular domain (TNFRSF1A, Leu34-Thr211) (UniProt P19438 34-211)
T2 construct: range 34-211; ECD cloned into pBadThioTopo; E. coli lysate on His capture plates
T2 sequence (looked up): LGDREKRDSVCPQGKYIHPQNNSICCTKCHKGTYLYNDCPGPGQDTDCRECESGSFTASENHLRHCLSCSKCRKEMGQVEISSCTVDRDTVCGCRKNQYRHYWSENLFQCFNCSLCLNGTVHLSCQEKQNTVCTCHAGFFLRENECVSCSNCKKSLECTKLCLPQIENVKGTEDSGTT

T3: OX40 extracellular domain (TNFRSF4, Gly33-Gly212) (UniProt P43489 33-212)
T3 construct: ECD cloned into pBadThioTopo; E. coli lysate on His capture plates
T3 sequence (looked up): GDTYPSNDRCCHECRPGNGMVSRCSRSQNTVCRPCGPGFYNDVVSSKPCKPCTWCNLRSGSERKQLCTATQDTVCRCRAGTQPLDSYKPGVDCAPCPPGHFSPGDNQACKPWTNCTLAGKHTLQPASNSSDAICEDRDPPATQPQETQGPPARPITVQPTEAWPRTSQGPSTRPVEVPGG

T4: FAS extracellular domain (TNFRSF6, Ser20-Gly175) (UniProt P25445 20-175)
T4 construct: ECD cloned into pBadThioTopo; E. coli lysate on His capture plates
T4 sequence (looked up): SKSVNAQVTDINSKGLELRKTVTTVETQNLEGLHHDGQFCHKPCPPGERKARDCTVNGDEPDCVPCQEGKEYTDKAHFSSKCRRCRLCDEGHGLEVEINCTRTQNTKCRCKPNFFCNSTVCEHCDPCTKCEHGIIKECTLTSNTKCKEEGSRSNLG

T5: DcR3 (TNFRSF6B, Val27-Ala176) (UniProt O95407 27-176)
T5 construct: range 27-176; ECD cloned into pBadThioTopo; E. coli lysate on His capture plates
T5 sequence (looked up): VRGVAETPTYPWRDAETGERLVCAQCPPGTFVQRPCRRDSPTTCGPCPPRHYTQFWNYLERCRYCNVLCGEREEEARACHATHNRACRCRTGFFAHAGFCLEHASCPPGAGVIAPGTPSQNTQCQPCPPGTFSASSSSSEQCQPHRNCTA

T6: DcR2 extracellular domain (TNFRSF10D, Thr57-Thr198) (UniProt Q9UBN6 57-198)
T6 construct: range 57-198; ECD cloned into pBadThioTopo; E. coli lysate on His capture plates
T6 sequence (looked up): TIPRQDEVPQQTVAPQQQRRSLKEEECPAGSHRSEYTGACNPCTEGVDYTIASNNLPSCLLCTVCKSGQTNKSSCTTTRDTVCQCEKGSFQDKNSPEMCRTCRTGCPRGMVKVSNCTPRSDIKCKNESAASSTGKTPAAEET

T7: OPG (TNFRSF11B, Lys17-Ile197) (UniProt O00300 17-197)
T7 construct: range 17-197; ECD cloned into pBadThioTopo; E. coli lysate on His capture plates
T7 sequence (looked up): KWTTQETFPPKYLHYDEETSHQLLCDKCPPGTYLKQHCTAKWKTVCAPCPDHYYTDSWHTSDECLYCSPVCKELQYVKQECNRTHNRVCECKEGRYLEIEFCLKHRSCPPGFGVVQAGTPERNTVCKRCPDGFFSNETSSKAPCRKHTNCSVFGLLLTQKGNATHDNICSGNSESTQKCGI

B1: 7A12 tri (trivalent anti-DR5 NB construct) (VHH)
chain: EVQLVESGGGLVQAGGSLRLSCAASGRTFSNYAMGWFRQAPGKEREFVAALNWSGGSTYYVDSVKGRFTISRDNAKNTVYLQMNSLKPEDTAVYYCAAAGSFSLGGRPYGDDYWGKGTLVTVSSGGGGSGGGGSGGGGSGGGGSGGGGSGGGGSGGGGSEVQLVESGGGLVQAGGSLRLSCAASGRTFSNYAMGWFRQAPGKEREFVAALNWSGGSTYYVDSVKGRFTISRDNAKNTVYLQMNSLKPEDTAVYYCAAAGSFSLGGRPYGDDYWGKGTLVTVSSGGGGSGGGGSGGGGSGGGGSGGGGSGGGGSGGGGSEVQLVESGGGLVQAGGSLRLSCAASGRTFSNYAMGWFRQAPGKEREFVAALNWSGGSTYYVDSVKGRFTISRDNAKNTVYLQMNSLKPEDTAVYYCAAAGSFSLGGRPYGDDYWGKGTLVTVSS
notes: three VHH units in one chain joined by GlySer linkers; not shown: CMYC-HIS6 tag
B2: 11H6 tri (trivalent anti-DR5 NB construct) (VHH)
chain: EVQLVESGGGLVQPGGSLRLSCAASGTFDKINNMGWYRQAPGKQRDLVAQITPGGITDYADSVKGRFTISRDNAKDTMYLQMNSLKPEDTAVYFCNAEILKRAYIDVYVNYWGQGTQVTVSSGGGGSGGGGSGGGGSGGGGSGGGGSGGGGSGGGGSEVQLVESGGGLVQPGGSLRLSCAASGTFDKINNMGWYRQAPGKQRDLVAQITPGGITDYADSVKGRFTISRDNAKDTMYLQMNSLKPEDTAVYFCNAEILKRAYIDVYVNYWGQGTQVTVSSGGGGSGGGGSGGGGSGGGGSGGGGSGGGGSGGGGSEVQLVESGGGLVQPGGSLRLSCAASGTFDKINNMGWYRQAPGKQRDLVAQITPGGITDYADSVKGRFTISRDNAKDTMYLQMNSLKPEDTAVYFCNAEILKRAYIDVYVNYWGQGTQVTVSS
notes: as for B1
B3: 11D1 tri (trivalent anti-DR5 NB construct) (VHH)
chain: EVQLVESGGGLVQPGGSLRLSCAASGSIDSINNMGWYRQAPGKQRELVAEITPRGRTNYADSEKSRFTISRDNAKRTVNLQMNSLKPEDTAVYYCNAEVRERGTSWYRPDYWGQGTQVTVSSGGGGSGGGGSGGGGSGGGGSGGGGSGGGGSGGGGSEVQLVESGGGLVQPGGSLRLSCAASGSIDSINNMGWYRQAPGKQRELVAEITPRGRTNYADSEKSRFTISRDNAKRTVNLQMNSLKPEDTAVYYCNAEVRERGTSWYRPDYWGQGTQVTVSSGGGGSGGGGSGGGGSGGGGSGGGGSGGGGSGGGGSEVQLVESGGGLVQPGGSLRLSCAASGSIDSINNMGWYRQAPGKQRELVAEITPRGRTNYADSEKSRFTISRDNAKRTVNLQMNSLKPEDTAVYYCNAEVRERGTSWYRPDYWGQGTQVTVSS
notes: as for B1

target: T8, cell-bound human DR5 (Colo205 and other human cell lines) (human, UniProt O14763 56-440); assay: cell-based or functional assay

Row | Binder | IC50, cell survival, Colo205 [nM]
1 | B1 | 0.12
2 | B2 | 0.0458
3 | B3 | 0.111

target: T8, cell-bound human DR5 (Colo205 and other …); assay: cell-based or functional assay; remark: another data set of the same source

Row | Binder | IC50, cell survival, A549 [nM] | IC50, cell survival, ARPE-19 [nM] | IC50, cell survival, H226 [nM] | IC50, cell survival, H2052 [nM] | IC50, cell survival, H2122 [nM] | IC50, cell survival, Huvec [nM] | IC50, cell survival, IMR-90 [nM] | IC50, cell survival, Jurkat [nM] | IC50, cell survival, M30 [nM] | IC50, cell survival, MiaPaCa-2 [nM]
4 | B1 | ≥ 20 | ≥ 20 | 0.03 | 0.064 | 0.008 | ≥ 20 | ≥ 20 | ≥ 20 | ≥ 20 | ≥ 20
5 | B2 | ≥ 20 | ≥ 20 | ≥ 20 | 0.36 | 0.012 | ≥ 20 | ≥ 20 | ≥ 20 | ≥ 20 | ≥ 20
6 | B3 | ≥ 20 | ≥ 20 | 0.03 | 0.015 | 0.004 | ≥ 20 | ≥ 20 | ≥ 20 | ≥ 20 | ≥ 20

same assay, conditions: not given

Row | Binder | IC50, cell survival, Molt4 [nM] | IC50, cell survival, Panc-1 [nM]
7 | B1 | ≥ 20 | ≥ 20
8 | B2 | ≥ 20 | ≥ 20
9 | B3 | ≥ 20 | ≥ 20

target: T1, hGITR; assay: ELISA, receptor ECD from E. coli lysate on His capture plate;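 further: binding specificity screen across TNF receptor superfamily ectodomains, anti-V5 detection as expression reference, primary antibody incubation 1 h at room temperature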

Row | binding result | Binder
10 | no binding (tested: not stated) | B1
11 | no binding (tested: not stated) | B2
12 | no binding (tested: not stated) | B3

target: T2, TNFR1 extracellular domain (TNFRSF1A, …); assay: as above

Row | binding result | Binder
13 | no binding (tested: not stated) | B1
14 | no binding (tested: not stated) | B2
15 | no binding (tested: not stated) | B3

target: T9, TNFR3 extracellular domain (TNFRSF3, Pro30-Thr224) (UniProt P36941 30-224); assay: as above
T9 construct: range 30-224; ECD cloned into pBadThioTopo; E. coli lysate on His capture plates
T9 sequence (P36941 30-224 limits assumed): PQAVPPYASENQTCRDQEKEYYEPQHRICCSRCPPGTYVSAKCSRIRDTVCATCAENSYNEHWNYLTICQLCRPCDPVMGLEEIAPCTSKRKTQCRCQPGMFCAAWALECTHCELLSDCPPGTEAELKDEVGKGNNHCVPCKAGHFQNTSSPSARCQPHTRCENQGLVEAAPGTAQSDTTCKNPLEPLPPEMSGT

Row | binding result | Binder
16 | no binding (tested: not stated) | B1
17 | no binding (tested: not stated) | B2
18 | no binding (tested: not stated) | B3

target: T3, OX40 extracellular domain (TNFRSF4, …); assay: as above

Row | binding result | Binder
19 | no binding (tested: not stated) | B1
20 | no binding (tested: not stated) | B2
21 | no binding (tested: not stated) | B3

target: T10, CD40 extracellular domain (TNFRSF5, Val18-Leu192) (UniProt P25942 18-192); assay: as above
T10 construct: range 18-192; ECD cloned into pBadThioTopo; E. coli lysate on His capture plates
T10 sequence (P25942 18-192 limits assumed): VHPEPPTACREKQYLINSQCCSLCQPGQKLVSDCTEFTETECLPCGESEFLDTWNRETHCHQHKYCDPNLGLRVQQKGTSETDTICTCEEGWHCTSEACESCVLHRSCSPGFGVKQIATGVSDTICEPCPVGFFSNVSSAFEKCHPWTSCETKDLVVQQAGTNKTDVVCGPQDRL

Row | binding result | Binder
22 | no binding (tested: not stated) | B1
23 | no binding (tested: not stated) | B2
24 | no binding (tested: not stated) | B3

target: T4, FAS extracellular domain (TNFRSF6, …); assay: as above

Row | binding result | Binder
25 | no binding (tested: not stated) | B1
26 | no binding (tested: not stated) | B2
27 | no binding (tested: not stated) | B3

target: T5, DcR3 (TNFRSF6B, Val27-Ala176); assay: as above

Row | binding result | Binder
28 | no binding (tested: not stated) | B1
29 | no binding (tested: not stated) | B2
30 | no binding (tested: not stated) | B3

target: T11, CD27 extracellular domain (TNFRSF7, Thr21-Ser187) (UniProt P26842 21-187); assay: as above
T11 construct: range 21-187; ECD cloned into pBadThioTopo; E. coli lysate on His capture plates
T11 sequence (P26842 21-187 limits assumed): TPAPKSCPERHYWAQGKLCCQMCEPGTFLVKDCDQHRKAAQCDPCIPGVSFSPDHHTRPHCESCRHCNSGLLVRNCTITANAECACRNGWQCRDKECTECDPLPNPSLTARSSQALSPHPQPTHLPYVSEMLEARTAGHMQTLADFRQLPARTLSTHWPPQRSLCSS

Row | binding result | Binder
31 | no binding (tested: not stated) | B1
32 | no binding (tested: not stated) | B2
33 | no binding (tested: not stated) | B3

target: T12, CD137 extracellular domain (TNFRSF9, Glu19-Ile188) (UniProt Q07011 19-188); assay: as above
T12 construct: range 19-188; ECD cloned into pBadThioTopo; E. coli lysate on His capture plates
T12 sequence (Q07011 19-188 limits assumed): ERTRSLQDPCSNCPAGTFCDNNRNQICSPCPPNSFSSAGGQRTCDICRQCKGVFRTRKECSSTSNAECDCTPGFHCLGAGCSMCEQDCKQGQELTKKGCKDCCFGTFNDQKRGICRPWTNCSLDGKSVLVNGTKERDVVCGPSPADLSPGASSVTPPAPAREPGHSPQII

Row | binding result | Binder
34 | no binding (tested: not stated) | B1
35 | no binding (tested: not stated) | B2
36 | no binding (tested: not stated) | B3

target: T6, DcR2 extracellular domain (TNFRSF10D, …); assay: as above

Row | binding result | Binder
37 | no binding (tested: not stated) | B1
38 | no binding (tested: not stated) | B2
39 | no binding (tested: not stated) | B3

target: T7, OPG (TNFRSF11B, Lys17-Ile197); assay: as above

Row | binding result | Binder
40 | no binding (tested: not stated) | B1
41 | no binding (tested: not stated) | B2
42 | no binding (tested: not stated) | B3

target: T13, BAFFR extracellular domain (TNFRSF13C, Met1-Gly64) (UniProt Q96RJ3 1-64); assay: as above
T13 construct: range 1-64; ECD cloned into pBadThioTopo; E. coli lysate on His capture plates
T13 sequence (Q96RJ3 1-64 limits assumed): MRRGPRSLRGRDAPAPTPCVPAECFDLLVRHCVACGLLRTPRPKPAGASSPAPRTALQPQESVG

Row | binding result | Binder
43 | no binding (tested: not stated) | B1
44 | no binding (tested: not stated) | B2
45 | no binding (tested: not stated) | B3

target: cynomolgus DR5-Fc fusion protein (cyno DR5 amino acids 56 to 213 fused with human IgG1 Fc) (cynomolgus; human); assay: SPR (Biacore), CM5 chip coated with cynomolgus DR5-Fc, 1 to 100 nM NB construct

Row | Kd [nM] | Binder
46 | < 0.03 | B1
47 | < 0.3 | B2
48 | < 0.2 | B3
